Experimental findings from US10738094B2, “Peptides and combination of peptides for use in immunotherapy against ovarian cancer and other cancers” (immatics biotechnologies GmbH, priority 2015, dated 2020) are described below.

For this assay, the target named is HLA-A*02:01 (Homo sapiens, UniProt P04439, D140Y/D185E/D98H/E176V/E277Q/G131W/G231S/I119V/I121R/I166T/I218V/L300P/L318F/N151K/N90K/P208A/P217A/Q86G/Q94H/R138H/R169H/T345S). Kind of assay: MHC binding assay (UV-ligand exchange, beta2m ELISA). The settings on record: binding to HLA-A*02:01 ranged by peptide exchange yield (UV-ligand exchange, β2m ELISA). The method, boiled down: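 Stabilised complexes were quantified via their β2m light chain: 100-fold-diluted monomers bound to streptavidin plates, then HRP anti-β2m at 2 ug/ml for 1 h at 37° C., TMB read at 450 nm. The value is the yield of UV-induced exchange of a photocleavable peptide for the candidate.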
“348 (ILLDVKTRL; listed as Homo sapiens) [compound 348]”: the Peptide exchange entry was ““++++” (≥75% = ++++)”.
Consider “184 (YLMDINGKMWL; listed as Homo sapiens) [compound 184]”, for which the Peptide exchange entry was ““+++” (≥50 = +++)”.
Turning to “396 (ALLPDLPAL; listed as Homo sapiens) [compound 396]”, the Peptide exchange result is reported as ““+++” (≥50 = +++)”.
For “170 (RLQETLSAA; listed as Homo sapiens) [compound 170]” the value was ““+++” (≥50 = +++)”.
The result for “99 (ALVSKGLATV; listed as Homo sapiens) [compound 99]” reads ““++” (≥20% = ++)”.
For “371 (FLQAHLHTA; listed as Homo sapiens) [compound 371]”, the Peptide exchange result is reported as ““++++” (≥75% = ++++)”.
The result for “289 (VLLEIEDLQV; listed as Homo sapiens) [compound 289]” reads ““++++” (≥75% = ++++)”.
The result for “301 (FLVEDLVDSL; listed as Homo sapiens) [compound 301]” reads ““+++” (≥50 = +++)”.
For “185 (FLIDDKGYTL; listed as Homo sapiens) [compound 185]” the value was ““++” (≥20% = ++)”.
In the case of “63 (YLLPSGGSVTL; listed as Homo sapiens) [compound 63]”, the Peptide exchange result is recorded as ““++” (≥20% = ++)”.
For “189 (ALQRKLPYV; listed as Homo sapiens) [compound 189]” the value was ““+++” (≥50 = +++)”.
The result for “556 (FLTDLEDLTL; listed as Homo sapiens) [compound 556]” reads ““+++” (≥50 = +++)”.
The result for “591 (SMAELDIKL; listed as Homo sapiens) [compound 591]” reads ““+++” (≥50 = +++)”.
For the substance “562 (YLEELPEKLKL; listed as Homo sapiens) [compound 562]”, the Peptide exchange result is ““+++” (≥50 = +++)”.
For “600 (ALAAPDIVPAL; listed as Homo sapiens) [compound 600]”, the Peptide exchange entry was ““+++” (≥50 = +++)”.
The result for “486 (AVMESIQGV; listed as Homo sapiens) [compound 486]” reads ““+++” (≥50 = +++)”; that for “295 (VLDRESPNV; listed as Homo sapiens) [compound 295]”, ““+++” (≥50 = +++)”; that for “399 (YLFEPLYHV; listed as Homo sapiens) [compound 399]”, ““+++” (≥50 = +++)”.
As to “599 (YLLNDASLISV; listed as Homo sapiens) [compound 599]”, the Peptide exchange result is ““+++” (≥50 = +++)”.
In the case of “142 (FLFATPVFI; listed as Homo sapiens) [compound 142]”, the Peptide exchange result was ““+++” (≥50 = +++)”.
Turning to “491 (GLNDRSDAV; listed as Homo sapiens) [compound 491]”, the Peptide exchange entry is ““++” (≥20% = ++)”.
For “296 (FMEGAIIYV; listed as Homo sapiens) [compound 296]” the value was ““+++” (≥50 = +++)”.
For “336 (ILLTAIVQV; listed as Homo sapiens) [compound 336]” the value was ““+++” (≥50 = +++)”; for “102 (YLFESEGLVL; listed as Homo sapiens) [compound 102]”, ““+++” (≥50 = +++)”; for “428 (KLGHTDILVGV; listed as Homo sapiens) [compound 428]”, ““++” (≥20% = ++)”.
Regarding “484 (SLIEKVTQL; listed as Homo sapiens) [compound 484]”, the Peptide exchange result is reported as ““+++” (≥50 = +++)”.
The result for “573 (ILVANAIVGV; listed as Homo sapiens) [compound 573]” reads ““+++” (≥50 = +++)”; that for “250 (ALSEEGLLVYL; listed as Homo sapiens) [compound 250]”, ““+++” (≥50 = +++)”.
For “389 (LLADVTHLL; listed as Homo sapiens) [compound 389]” the value was ““++” (≥20% = ++)”; for “282 (LLADVVPTT; listed as Homo sapiens) [compound 282]”, ““+++” (≥50 = +++)”.
Turning to “402 (VLFSGALLGL; listed as Homo sapiens) [compound 402]”, the Peptide exchange entry is listed as ““++” (≥20% = ++)”.
For “190 (FLSSLTETI; listed as Homo sapiens) [compound 190]”, the Peptide exchange entry is listed as ““+++” (≥50 = +++)”.
For “109 (IILSILEQA; listed as Homo sapiens) [compound 109]” the value was ““++++” (≥75% = ++++)”; for “131 (FVPPVTVFPSL; listed as Homo sapiens) [compound 131]”, ““++” (≥20% = ++)”; for “521 (MLLTKLPTI; listed as Homo sapiens) [compound 521]”, ““+++” (≥50 = +++)”.
The result for “41 (SLMPHIPGL; listed as Homo sapiens) [compound 41]” reads ““+++” (≥50 = +++)”; that for “134 (YLQELIFSV; listed as Homo sapiens) [compound 134]”, ““+++” (≥50 = +++)”; that for “242 (AIAYILQGV; listed as Homo sapiens) [compound 242]”, ““++” (≥20% = ++)”.
For “505 (SLAPGDVVRQV; listed as Homo sapiens) [compound 505]” the value was ““++” (≥20% = ++)”; for “168 (KILDADIQL; listed as Homo sapiens) [compound 168]”, ““++++” (≥75% = ++++)”; for “370 (SLLQDLVSV; listed as Homo sapiens) [compound 370]”, ““+++” (≥50 = +++)”.
On to “53 (KMIETDILQKV; listed as Homo sapiens) [compound 53]”, for which the Peptide exchange result was ““++++” (≥75% = ++++)”.
For “452 (ILLEHGADPNL; listed as Homo sapiens) [compound 452]” the value was ““+++” (≥50 = +++)”; for “104 (STMEQNFLL; listed as Homo sapiens) [compound 104]”, ““++++” (≥75% = ++++)”; for “186 (TLFFQQNAL; listed as Homo sapiens) [compound 186]”, ““++” (≥20% = ++)”.
The result for “86 (NLIGKIENV; listed as Homo sapiens) [compound 86]” reads ““+++” (≥50 = +++)”; that for “611 (YLLDDGTLVV; listed as Homo sapiens) [compound 611]”, ““++++” (≥75% = ++++)”.
The result for “571 (LLLTTIPQI; listed as Homo sapiens) [compound 571]” reads ““+++” (≥50 = +++)”; that for “167 (KVLEVTEEFGV; listed as Homo sapiens) [compound 167]”, ““+++” (≥50 = +++)”; that for “164 (ALLPQPKNLTV; listed as Homo sapiens) [compound 164]”, ““+++” (≥50 = +++)”.
With “13 (YLMDESLNL; listed as Homo sapiens) [compound 13]”, the Peptide exchange entry was ““+++” (≥50 = +++)”.
For “108 (ALFPGVALLLA; listed as Homo sapiens) [compound 108]” the value was ““++++” (≥75% = ++++)”.
“333 (FLPDANSSV; listed as Homo sapiens) [compound 333]”: the Peptide exchange result is recorded as ““++” (≥20% = ++)”.
For “28 (QLLDETSAITL; listed as Homo sapiens) [compound 28]” the value was ““+++” (≥50 = +++)”; for “315 (YLQDVVEQA; listed as Homo sapiens) [compound 315]”, ““+++” (≥50 = +++)”; for “539 (ALFDAQAQV; listed as Homo sapiens) [compound 539]”, ““+++” (≥50 = +++)”.
The result for “369 (GLFPEHLIDV; listed as Homo sapiens) [compound 369]” reads ““+++” (≥50 = +++)”; that for “525 (VLLEAGEGLVTI; listed as Homo sapiens) [compound 525]”, ““+++” (≥50 = +++)”.
The result for “513 (SLWPSPEQL; listed as Homo sapiens) [compound 513]” reads ““++” (≥20% = ++)”; that for “267 (ALQDFLLSV; listed as Homo sapiens) [compound 267]”, ““+++” (≥50 = +++)”.
For “262 (LLWGDLIWL; listed as Homo sapiens) [compound 262]”, the Peptide exchange result is ““+++” (≥50 = +++)”.
As to “501 (LLDPNVKSIFV; listed as Homo sapiens) [compound 501]”, the Peptide exchange result was ““+++” (≥50 = +++)”.
“592 (RLLSAAENFL; listed as Homo sapiens) [compound 592]”: the Peptide exchange entry is recorded as ““+++” (≥50 = +++)”.
For “374 (FLLQQHLISA; listed as Homo sapiens) [compound 374]” the value was ““++” (≥20% = ++)”.
For “209 (KLIESKHEV; listed as Homo sapiens) [compound 209]” the value was ““++” (≥20% = ++)”; for “504 (GLSDGNPSL; listed as Homo sapiens) [compound 504]”, ““++” (≥20% = ++)”.
For “31 (YLAPELFVNV; listed as Homo sapiens) [compound 31]”, the Peptide exchange entry is ““++” (≥20% = ++)”.
The result for “233 (VLSETLYEL; listed as Homo sapiens) [compound 233]” reads ““++” (≥20% = ++)”; that for “607 (RLYSGISGLEL; listed as Homo sapiens) [compound 607]”, ““+++” (≥50 = +++)”.
The result for “615 (VLPPDTDPA; listed as Homo sapiens) [compound 615]” reads ““++” (≥20% = ++)”.
The result for “565 (ALQETPTSV; listed as Homo sapiens) [compound 565]” reads ““++” (≥20% = ++)”.
